Tests used:
[1] = molecular target: human interleukin-1 beta (IL-1β) protein standard (R&D Systems 201-LB-005) (human) (UniProt P01584); experiment: conventional Simoa sandwich (capture beads + detector m2), 150 pM SβG/5 min; IL-1B at 0.098 fM
[2] = molecular target: human interleukin-1 beta (IL-1β) protein standard (R&D Systems 201-LB-005) (human) (UniProt P01584); experiment: conventional Simoa sandwich (capture beads + detector m2), 300 pM SβG/15 min; IL-1B at 0.391 fM
[3] = molecular target: human interleukin-1 beta (IL-1β) protein standard (R&D Systems 201-LB-005) (human) (UniProt P01584); experiment: dSimoa sandwich (capture beads + detector m2), 300 pM streptavidin-DNA/15 min; IL-1B at 10 fM
[4] = molecular target: human interleukin-1 beta (IL-1β) protein standard (R&D Systems 201-LB-005) (human) (UniProt P01584); experiment: dSimoa sandwich (capture beads + detector m2), 300 pM streptavidin-DNA/15 min; IL-1B at 0.5 fM
[5] = molecular target: human interleukin-1 beta (IL-1β) protein standard (R&D Systems 201-LB-005) (human) (UniProt P01584); experiment: dSimoa sandwich (capture beads + detector m2), 300 pM streptavidin-DNA/15 min; IL-1B at 0.1 fM
[6] = molecular target: human interleukin-1 beta (IL-1β) protein standard (R&D Systems 201-LB-005) (human) (UniProt P01584); experiment: conventional Simoa sandwich (capture beads + detector m2), 150 pM SβG/5 min; IL-1B at 100 fM
[7] = molecular target: human interleukin-1 beta (IL-1β) protein standard (R&D Systems 201-LB-005) (human) (UniProt P01584); experiment: conventional Simoa sandwich (capture beads + detector m2), 150 pM SβG/5 min; IL-1B at 0.391 fM
[8] = molecular target: human interleukin-1 beta (IL-1β) protein standard (R&D Systems 201-LB-005) (human) (UniProt P01584); experiment: conventional Simoa sandwich (capture beads + detector m2), 300 pM SβG/15 min; IL-1B at 25 fM
[9] = molecular target: human interleukin-1 beta (IL-1β) protein standard (R&D Systems 201-LB-005) (human) (UniProt P01584); experiment: dSimoa sandwich (capture beads + detector m2), 300 pM streptavidin-DNA/15 min; IL-1B at 1 fM
[10] = molecular target: human interleukin-1 beta (IL-1β) protein standard (R&D Systems 201-LB-005) (human) (UniProt P01584); experiment: conventional Simoa sandwich (capture beads + detector m2), 150 pM SβG/5 min; IL-1B at 25 fM
[11] = molecular target: human interleukin-1 beta (IL-1β) protein standard (R&D Systems 201-LB-005) (human) (UniProt P01584); experiment: conventional Simoa sandwich (capture beads + detector m2), 300 pM SβG/15 min; IL-1B at 1.563 fM
[12] = molecular target: human interleukin-1 beta (IL-1β) protein standard (R&D Systems 201-LB-005) (human) (UniProt P01584); experiment: conventional Simoa sandwich (capture beads + detector m2), 300 pM SβG/15 min; IL-1B at 100 fM
[13] = molecular target: human interleukin-1 beta (IL-1β) protein standard (R&D Systems 201-LB-005) (human) (UniProt P01584); experiment: conventional Simoa sandwich (capture beads + detector m2), 300 pM SβG/15 min; IL-1B at 0.098 fM
[14] = molecular target: human interleukin-1 beta (IL-1β) protein standard (R&D Systems 201-LB-005) (human) (UniProt P01584); experiment: dSimoa sandwich (capture beads + detector m2), 300 pM streptavidin-DNA/15 min; IL-1B at 0.05 fM
[15] = molecular target: human interleukin-1 beta (IL-1β) protein standard (R&D Systems 201-LB-005) (human) (UniProt P01584); experiment: dSimoa sandwich (capture beads + detector m2), 300 pM streptavidin-DNA/15 min; IL-1B at 0.01 fM
[16] = molecular target: human interleukin-1 beta (IL-1β) protein standard (R&D Systems 201-LB-005) (human) (UniProt P01584); experiment: conventional Simoa sandwich (capture beads + detector m2), 300 pM SβG/15 min; IL-1B at 6.25 fM
[17] = molecular target: human interleukin-1 beta (IL-1β) protein standard (R&D Systems 201-LB-005) (human) (UniProt P01584); experiment: conventional Simoa sandwich (capture beads + detector m2), 300 pM SβG/15 min; IL-1B at 0.024 fM
[18] = molecular target: human interleukin-1 beta (IL-1β) protein standard (R&D Systems 201-LB-005) (human) (UniProt P01584); experiment: dSimoa sandwich (capture beads + detector m2), 300 pM streptavidin-DNA/15 min; IL-1B at 100 fM
[19] = molecular target: human interleukin-1 beta (IL-1β) protein standard (R&D Systems 201-LB-005) (human) (UniProt P01584); experiment: conventional Simoa sandwich (capture beads + detector m2), 150 pM SβG/5 min; IL-1B at 1.563 fM

Sequence of UniProt P01584 (P01584 117-269 limits assumed): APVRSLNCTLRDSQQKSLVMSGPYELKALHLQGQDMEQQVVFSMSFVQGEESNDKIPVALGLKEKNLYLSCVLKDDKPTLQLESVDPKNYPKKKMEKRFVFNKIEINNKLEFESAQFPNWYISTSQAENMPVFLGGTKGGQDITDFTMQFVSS

IL-1β capture antibody (Biolegend 508202)
average AEB [1]: 0.0108 AEB
average AEB [2]: 0.029 AEB
average AMB [3]: 0.0898 AMB
average AMB [4]: 0.0114 AMB
average AMB [5]: 0.0051 AMB
average AEB [6]: 0.721 AEB
average AEB [7]: 0.0135 AEB
average AEB [8]: 0.221 AEB
average AMB [9]: 0.0133 AMB
average AEB [10]: 0.199 AEB
average AEB [11]: 0.0379 AEB
average AEB [12]: 0.767 AEB
average AEB [13]: 0.0271 AEB
average AMB [14]: 0.0054 AMB
average AMB [15]: 0.0044 AMB
average AEB [16]: 0.0714 AEB
average AEB [17]: 0.0428 AEB
average AMB [18]: 0.822 AMB
average AEB [19]: 0.0222 AEB
